Data reported in the supplement of paper PMC9732359.
± gives the uncertainty stated by the source.

Assay: protein stability index of a GFP-peptide fusion (yeast GPS) (PSI 1-4); higher = more stable; sorted into four equal gates, so the index is relative within each strain
Outline: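 Tiled 17-residue peptides from yeast proteins were fused downstream of GFP on a plasmid that also expresses Cherry, and the pooled library was carried in yeast. Mid-log cultures grown in leucine-free medium were sorted into four equal gates by GFP/Cherry fluorescence ratio. Plasmids from each gate were PCR-amplified and Illumina-sequenced, and reads were assigned to strains by barcodes. Each peptide's protein stability index is the sum, over gates, of the gate's read frequency multiplied by its gate number.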

| Sequence | protein stability index (doa10∆) | protein stability index (pdr5∆) | protein stability index (san1∆) | protein stability index (ubr1∆) |
| --- | --- | --- | --- | --- |
| LITSSARKELPIFDYIH [SIR3] | 2.16 ± 0.056 | 2.06 ± 0.061 | 1.92 ± 0.068 | 2.48 ± 0.048 |
| QWFLQYQNQFVEFCRNI [YML103C/NUP188] | 2.48 ± 0.17 | 1.86 ± 0.12 | 1.89 ± 0.17 | 2.24 ± 0.1 |
| DRETALDFIGRRGTALG [RPB2] | 2.23 ± 0.072 | 2.07 ± 0.065 | 2.22 ± 0.059 | 2.14 ± 0.066 |
| KMWFDVQLRYGDYDSHD [PRP8] | 1.78 ± 0.12 | 2.06 ± 0.15 |  | 3.06 ± 0.2 |
| NTSAQHVESDKITAKTQ [IRR1] | 2.92 ± 0.05 | 2.99 ± 0.039 | 2.95 ± 0.05 | 3.08 ± 0.042 |
| SGGWGVPRKFKHFIQGG [RPL7A] |  | 3.23 ± 0.18 |  |  |
| EFTSKIGFTIKEYENHS [SMC1] | 2.59 ± 0.11 | 3.04 ± 0.061 | 2.84 ± 0.12 | 3.01 ± 0.063 |
| NVLNRIQELEDQRDELL [ITC1] | 3.39 ± 0.12 | 3.15 ± 0.085 | 3.5 ± 0.077 | 3.56 ± 0.12 |
| NFKSYRGVTKVGFGESN [SMC1] | 3.03 ± 0.096 | 2.89 ± 0.13 | 2.53 ± 0.15 | 2.72 ± 0.11 |
| ENDEEDIYMHDVNSASK [RRP4] | 3.47 ± 0.098 | 3.47 ± 0.095 | 3.01 ± 0.095 | 3.31 ± 0.059 |
| ENGTHNDEVNEDEEDDN [YCG1] | 3.42 ± 0.1 | 3.23 ± 0.12 | 3.54 ± 0.11 | 3.49 ± 0.14 |
| KLIKFETRNEDDVVVLT [FAS1] | 3.32 ± 0.17 | 2.93 ± 0.13 | 3.07 ± 0.063 | 3.12 ± 0.16 |
| SRRFKNGFQTGSASKAS [RPL37A] | 2.76 ± 0.075 | 2.73 ± 0.087 | 3.26 ± 0.17 | 2.58 ± 0.055 |
| ECPLDPGGYFIVNGTEK [RET1] | 3.18 ± 0.12 | 3.34 ± 0.095 | 3.26 ± 0.088 | 3.29 ± 0.082 |
| RLNTVTRVHQLMLEDAV [MCD1] | 3.32 ± 0.21 | 1.62 ± 0.06 | 1.69 ± 0.21 | 2.32 ± 0.095 |
| ECENEIKTKQMSLKKCQ [SMC2] | 2.92 ± 0.25 | 3.28 ± 0.1 | 3.22 ± 0.076 | 3.32 ± 0.058 |
| MSLPATFDLTPEDAQLL [RPS0A] | 2.75 ± 0.079 | 2.83 ± 0.12 | 2.47 ± 0.15 | 2.31 ± 0.11 |
| TFEKHDRVEDICERIFE [RRI2] | 2.68 ± 0.12 | 3.05 ± 0.16 | 3.15 ± 0.23 |  |
| KSLDKKIAKRRQVYKPV [POP3] | 3.25 ± 0.21 | 3.09 ± 0.15 | 2.54 ± 0.23 | 3.5 ± 0.2 |
| IADQDMEDEDMVDVIID [ESC2] | 3.41 ± 0.16 | 3.3 ± 0.079 | 3.15 ± 0.088 | 3.15 ± 0.11 |

| Sequence | protein stability index (doa10∆) | protein stability index (pdr5∆) | protein stability index (san1∆) | protein stability index (ubr1∆) |
| --- | --- | --- | --- | --- |
| STLTTISGNPPLLYNSL [SRB5] | 2.66 ± 0.043 | 2.46 ± 0.038 | 2.49 ± 0.043 | 2.56 ± 0.036 |
| PQQSGKKLLINKDASLA [DPB4] | 2.2 ± 0.062 | 1.99 ± 0.064 | 1.81 ± 0.1 | 2.22 ± 0.055 |
| MVRLKSRYILFEIIFPP [POP5] | 1.47 ± 0.067 | 1.42 ± 0.054 | 1.52 ± 0.084 | 1.5 ± 0.047 |
| TKSSLNDLDYDLIADTI [YML103C/NUP188] | 2.64 ± 0.07 | 2.48 ± 0.057 | 2.27 ± 0.067 | 2.52 ± 0.053 |
| FANNHFLNSNAVVVGTG [COR1] | 1.41 ± 0.064 | 1.91 ± 0.061 | 2.33 ± 0.064 | 2.04 ± 0.056 |
| VDSWDREFLKVDQEMLY [SKP1] | 3.43 ± 0.12 | 3.29 ± 0.078 | 3.21 ± 0.1 | 3.26 ± 0.086 |
| QGAKTYLERTLDTFIKI [PRE5] | 3.03 ± 0.081 | 3.18 ± 0.068 | 2.81 ± 0.067 | 3.21 ± 0.058 |
| LKEVLYNDSATSGEAAA [RPN2] | 1.45 ± 0.057 | 1.52 ± 0.063 | 1.86 ± 0.11 | 1.28 ± 0.056 |
| RKVRTKKWKKYWQYKAG [SWP82] | 2.47 ± 0.089 | 2.17 ± 0.12 | 2.83 ± 0.12 | 2.04 ± 0.058 |
| DDKDCTIKISTNDDSIK [RGR1] | 2.89 ± 0.068 | 3.15 ± 0.067 | 2.98 ± 0.052 | 2.96 ± 0.057 |
| SVGLPSKVASSLVIIIL [ECM29] | 2.21 ± 0.048 | 1.8 ± 0.041 | 2.28 ± 0.064 | 2.21 ± 0.061 |
| ELYSFQQLVDSEKRLDH [SNF12] | 1.35 ± 0.095 | 2.26 ± 0.074 | 2.26 ± 0.11 | 1.57 ± 0.053 |
| FIYGMSAKDHPKVKEIK [PRP8] | 2.53 ± 0.25 | 3.12 ± 0.19 | 2.72 ± 0.23 | 3.33 ± 0.16 |
| FPQGLNIVMDSKQNGIE [SSN8] | 3.11 ± 0.091 | 3.04 ± 0.21 | 3.26 ± 0.078 | 2.61 ± 0.1 |
| LRDESLTVDNLSIAIVG [PRE5] | 2.65 ± 0.075 | 2.26 ± 0.066 | 2.5 ± 0.06 | 2.93 ± 0.051 |
| ASYLTPLLEAKKLVWPL [SSN2] | 2.13 ± 0.14 | 2.04 ± 0.066 | 2.86 ± 0.15 | 2.71 ± 0.084 |
| GVQSNGDQFLRYVNLLG [PRE4] | 2.6 ± 0.073 | 2.51 ± 0.05 | 2.17 ± 0.063 | 2.31 ± 0.036 |
| SPQAVSSFVRQELAKSI [PRE1] | 2.33 ± 0.11 | 2.33 ± 0.072 | 2.1 ± 0.19 | 2.31 ± 0.059 |
| LGINLVTADTVILFDSD [ISW2] | 2.53 ± 0.1 | 2.65 ± 0.086 | 2.51 ± 0.16 | 2.94 ± 0.06 |
| QTQQDLPKVRYNVEKVK [NSL1] | 2.7 ± 0.074 | 2.57 ± 0.063 | 2.75 ± 0.054 | 2.33 ± 0.079 |
